Test results: patent US20250145710A1 (INTEGRAL MOLECULAR, published 2025)
Each block holds one binder with its values, some of them ahead of it.

Assays:
[1] = target: T1, human CLDN9 (human, UniProt O95484 1-217); test: binding to cells expressing CLDN9 (FIG. 33B, FIG. 34 text)
T1 construct: whole, on cells; also called claudin 9
T1 sequence (looked up): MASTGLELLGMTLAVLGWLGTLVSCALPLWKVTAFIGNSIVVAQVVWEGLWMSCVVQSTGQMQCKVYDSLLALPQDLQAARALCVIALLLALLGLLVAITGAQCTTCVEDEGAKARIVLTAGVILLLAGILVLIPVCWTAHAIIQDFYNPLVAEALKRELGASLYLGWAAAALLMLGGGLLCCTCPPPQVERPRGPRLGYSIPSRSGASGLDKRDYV

[2] = target: T2, human CLDN3 (human, UniProt O15551 1-220); test: binding to cells expressing CLDN3 (FIG. 34 text)
T2 construct: whole, on cells; also called claudin 3
T2 sequence (looked up): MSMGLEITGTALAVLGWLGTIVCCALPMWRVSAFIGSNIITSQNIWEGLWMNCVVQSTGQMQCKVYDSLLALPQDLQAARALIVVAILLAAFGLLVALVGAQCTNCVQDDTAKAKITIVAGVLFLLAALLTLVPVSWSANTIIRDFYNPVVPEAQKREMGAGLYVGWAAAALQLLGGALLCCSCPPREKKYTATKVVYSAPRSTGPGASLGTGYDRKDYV

[3] = target: T3, human CLDN6 (human, UniProt P56747 1-220); test: cell-based or functional assay
T3 sequence (looked up): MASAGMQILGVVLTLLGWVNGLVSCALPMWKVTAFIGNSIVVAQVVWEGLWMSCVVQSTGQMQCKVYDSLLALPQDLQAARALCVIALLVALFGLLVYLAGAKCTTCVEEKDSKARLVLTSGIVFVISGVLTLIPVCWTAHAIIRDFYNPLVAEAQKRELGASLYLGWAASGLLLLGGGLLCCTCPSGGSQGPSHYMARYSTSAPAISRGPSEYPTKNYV

[4] = target: T4, human CLDN4 (human, UniProt O14493 1-209); test: binding to cells expressing CLDN4 (FIG. 34 text)
T4 construct: whole, on cells; also called claudin 4
T4 sequence (looked up): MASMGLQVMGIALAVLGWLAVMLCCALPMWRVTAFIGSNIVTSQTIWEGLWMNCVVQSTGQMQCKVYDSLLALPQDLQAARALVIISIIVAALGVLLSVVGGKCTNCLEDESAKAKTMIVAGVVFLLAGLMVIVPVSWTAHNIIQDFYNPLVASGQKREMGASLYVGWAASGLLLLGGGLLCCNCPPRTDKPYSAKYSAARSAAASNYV

[5] = target: T3, human CLDN6; test: flow cytometry on a CLDN negative parental cell line transfected with CLDN6, CLDN4, CLDN3 or CLDN9 (FIG. 12D)
[6] = target: T3, human CLDN6; test: flow cytometry on a CLDN negative parental cell line transfected with CLDN6, CLDN4, CLDN3 or CLDN9 (FIG. 12C)
[7] = target: T3, human CLDN6; test: flow cytometry on a CLDN negative parental cell line transfected with CLDN6, CLDN4, CLDN3 or CLDN9 (FIG. 12A)

B1: IMC-16-3 scFv-Fab IgG antibody (bispecific antibody)
heavy: EVQLLESGGGLVQPGGSLRLSCAASGFTFSSYAMNWVRQAPGKGLEWVAGISSSGRYTGYADSVKGRFTISRDNSKNTLYLQMNSLRAEDTAVYYCAKSVGSGVSWSGYVATSLDAWGQGTLVTVSSASTKGPSVFPLAPSSKSTSGGTAALGCLVKDYFPEPVTVSWNSGALTSGVHTFPAVLQSSGLYSLSSVVTVPSSSLGTQTYICNVNHKPSNTKVDKKVEPKSCDKTHTCPPCPAPEAAGGPSVFLFPPKPKDTLMISRTPEVTCVVVDVSHEDPEVKFNWYVDGVEVHNAKTKPREEQYNSTYRVVSVLTVLHQDWLNGKEYKCKVSNKALPAPIEKTISKAKGQPREPQVYTLPPSREEMTKNQVSLWCLVKGFYPSDIAVEWESNGQPENNYKTTPPVLDSDGSFFLYSKLTVDKSRWQQGNVFSCSVMHEALHNHYTQKSLSLSPGK
light: SYELTQPPSVSVSPGQTARITCSAGSGLYGWYQQKPGQAPVLVIYGTNKRPSGIPERFSGSSSGTTVTLTISGVQAEDEADYYCGSADSSTNAGIFGGGTKLTVLGQPKAAPSVTLFPPSSEELQANKATLVCLISDFYPGAVTVAWKADSSPVKAGVETTTPSKQSNNKYAASSYLSLTPEQWKSHRSYSCQVTHEGSTVEKTVAPTECS
scFv: EVQLVESGGGLVQPGGSLRLSCAASGFTFSTYAMNWVRQAPGKGLEWVGRIRSKYNNYATYYADSVKGRFTISRDDSKNTLYLQMNSLRAEDTAVYYCVRHGNFGDSYVSWFAYWGQGTLVTVSSGKPGSGKPGSGKPGSGKPGSQAVVTQEPSLTVSPGGTVTLTCGSSTGAVTTSNYANWVQQKPGKSPRGLIGGTNKRAPGVPARFSGSLLGGKAALTISGAQPEDEADYYCALWYSNHWVFGGGTKLTVLASPKSSDKTHTCPPCPAPEAAGGPSVFLFPPKPKDTLMISRTPEVTCVVVDVSHEDPEVKFNWYVDGVEVHNAKTKPREEQYNSTYRVVSVLTVLHQDWLNGKEYKCKVSNKALPAPIEKTISKAKGQPREPQVYTLPPSREEMTKNQVSLSCAVKGFYPSDIAVEWESNGQPENNYKTTPPVLDSDGSFFLVSKLTVDKSRWQQGNVFSCSVMHEALHNHYTQKSLSLSPGK
notes: also called IMC-16-3 scFv-Fab IgG bispecific antibody
binding result [1]: no binding | binding result [2]: no binding | cytokine activation assay (IL-6, IL-2, TNF-alpha, IL-8) in human PBMC co-cultured with K562 cells [3]: ~10 fold more potent than RefMAB #3 | cytotoxicity assay in OV-90 ovarian cancer cells with human PBMC, two Effector:Target ratios [3]: ~10 fold more potent than RefMAB #3 | binding result [4]: no binding

B2: IMC-21-1 IgG-(scFv)2 antibody (bispecific antibody)
heavy: not shown
light: SYELTQPPSVSVSPGQTARITCSAGSGLYGWYQQKPGQAPVLVIYGTNKRPSGIPERFSGSSSGTTVTLTISGVQAEDEADYYCGSADSSTNAGIFGGGTKLTVLGQPKAAPSVTLFPPSSEELQANKATLVCLISDFYPGAVTVAWKADSSPVKAGVETTTPSKQSNNKYAASSYLSLTPEQWKSHRSYSCQVTHEGSTVEKTVAPTECS
notes: also called MC-21-1 antibody
binding result [5]: binds

Other lines, results leading:

binding result [6]: binds
B3: IMC-16-15 scFv-Fab IgG antibody (bispecific antibody)
heavy: EVQLLESGGGLVQPGGSLRLSCAASGFTFSSYAMNWVRQAPGKGLEWVAGISSSGRYTGYADSVKGRFTISRDNSKNTLYLQMNSLRAEDTAVYYCAKSMGSGVSWSGYVATSIDVWGQGTLVTVSSASTKGPSVFPLAPSSKSTSGGTAALGCLVKDYFPEPVTVSWNSGALTSGVHTFPAVLQSSGLYSLSSVVTVPSSSLGTQTYICNVNHKPSNTKVDKKVEPKSCDKTHTCPPCPAPEAAGGPSVFLFPPKPKDTLMISRTPEVTCVVVDVSHEDPEVKFNWYVDGVEVHNAKTKPREEQYNSTYRVVSVLTVLHQDWLNGKEYKCKVSNKALPAPIEKTISKAKGQPREPQVYTLPPSREEMTKNQVSLWCLVKGFYPSDIAVEWESNGQPENNYKTTPPVLDSDGSFFLYSKLTVDKSRWQQGNVFSCSVMHEALHNHYTQKSLSLSPGK
light: SYELTQPPSVSVSPGQTARITCSAGSGLYGWYQQKPGQAPVLVIYGTNKRPSGIPERFSGSSSGTTVTLTISGVQAEDEADYYCGSADSSTNAGIFGGGTKLTVLGQPKAAPSVTLFPPSSEELQANKATLVCLISDFYPGAVTVAWKADSSPVKAGVETTTPSKQSNNKYAASSYLSLTPEQWKSHRSYSCQVTHEGSTVEKTVAPTECS
scFv: EVQLVESGGGLVQPGGSLRLSCAASGFTFSTYAMNWVRQAPGKGLEWVGRIRSKYNNYATYYADSVKGRFTISRDDSKNTLYLQMNSLRAEDTAVYYCVRHGNFGDSYVSWFAYWGQGTLVTVSSGKPGSGKPGSGKPGSGKPGSQAVVTQEPSLTVSPGGTVTLTCGSSTGAVTTSNYANWVQQKPGKSPRGLIGGTNKRAPGVPARFSGSLLGGKAALTISGAQPEDEADYYCALWYSNHWVFGGGTKLTVLASPKSSDKTHTCPPCPAPEAAGGPSVFLFPPKPKDTLMISRTPEVTCVVVDVSHEDPEVKFNWYVDGVEVHNAKTKPREEQYNSTYRVVSVLTVLHQDWLNGKEYKCKVSNKALPAPIEKTISKAKGQPREPQVYTLPPSREEMTKNQVSLSCAVKGFYPSDIAVEWESNGQPENNYKTTPPVLDSDGSFFLVSKLTVDKSRWQQGNVFSCSVMHEALHNHYTQKSLSLSPGK

binding result [7]: binds
B4: IMC-2-7 tandem scFv antibody (bispecific antibody)
scFv: SYELTQPPSVSVSPGQTARITCSAGSGLYGWYQQKPGQAPVLVIYGTNKRPSGIPERFSGSSSGTTVTLTISGVQAEDEADYYCGSADSSTNAGIFGGGTKLTVLGGGGSGGGGSGGGGSEVQLLESGGGLVQPGGSLRLSCAASGFTFSSYAMNWVRQAPGKGLEWVAGISSSGRYTGYADSVKGRFTISRDNSKNTLYLQMNSLRAEDTAVYYCAKSVGSGVSWSGYVATSLDAWGQGTLVTVSSGGGGSEVQLVESGGGLVQPGGSLRLSCAASGFTFSTYAMNWVRQAPGKGLEWVGRIRSKYNNYATYYADSVKGRFTISRDDSKNTLYLQMNSLRAEDTAVYYCVRHGNFGDSYVSWFAYWGQGTLVTVSSGKPGSGKPGSGKPGSGKPGSQAVVTQEPSLTVSPGGTVTLTCGSSTGAVTTSNYANWVQQKPGKSPRGLIGGTNKRAPGVPARFSGSLLGGKAALTISGAQPEDEADYYCALWYSNHWVFGGGTKLTVL
notes: A single-chain tandem scFv (anti-CLDN6 scFv, then anti-CD3 scFv)
